Source: the DeepSol protein solubility set

Assay: soluble on expression in E. coli; label from the status in PepcDB or PDB records

Sequence | soluble on expression in E. coli
MRIGIVCPYSFDAPGGVQAHVLDLAEKFISQGHHVEVLGPASESTQLPDFVTRGGASLPIPYNGSVARLSFGPSTFIRARDFINRGQFDVLHIHEPNSPSFSMAALKVARGPIVATYHASSNRSLALKFALPFLRGQLEKIRGGIAVSEMARRWQVEMLGGDPILIPNGVETSQFELDKKPLWSGRIPEIVFLGRLDEHRKGLDILLRAVDRLDHEVRVTVIGGGTHPPAPRIDFVGRVSDEEKAEILGRADIYVAPNRGGESFGIVLVEAMAAGCVVVASDLEAFSAVCDAQSSQPSGILFRNGDADDLASTLRNVIENPKFGQELVTSGTQRAKEFDWDNVSKEIMRVYETVCDGTTVTAA | not soluble
GMAEYEDRYWTSSDGLRLHFRAYEGDISRPPVLCLPGLTRNARDFEDLATRLAGDWRVLCPEMRGRGDSDYAKDPMTYQPMQYLQDLEALLAQEGIERFVAIGTSLGGLLTMLLAAANPARIAAAVLNDVGPEVSPEGLERIRGYVGQGRNFETWMHAARALQESSGDVYPDWDITQWLRYAKRIMVLGSSGRIAFDYDMKIAEPFEAPVGATPQVDMWPLFDALATRPLLVLRGETSDILSAQTAAKMASRPGVELVTLPRIGHAPTLDEPESIAAIGRLLERV | soluble
MEIKLQGKVSLVTGSTRGIGRAIAEKLASAGSTVIITGTSGERAKAVAEEIANKYGVKAHGVEMNLLSEESINKAFEEIYNLVDGIDILVNNAGITRDKLFLRMSLLDWEEVLKVNLTGTFLVTQNSLRKMIKQRWGRIVNISSVVGFTGNVGQVNYSTTKAGLIGFTKSLAKELAPRNVLVNAVAPGFIETDMTAVLSEEIKQKYKEQIPLGRFGSPEEVANVVLFLCSELASYITGEVIHVNGGMF | soluble
MSSTKSIPADVIAKLQKFDELITKLEDAVEEVDVGVEKHFERSAHEMALVDTMSMFLMDSLMWAVQATKGGGADKNDDLLIDLARTKRMTADMKEINLRQDAPRINKQAAANFVRNALWEQPEQGESSKKAAK | not soluble
MIAAEAFAPHAALAQDLIPHAADTGDGSHDLAHIHRVFRNAMRIHAGEGGDGNVLAASVLLHDCVAVEKNSPLRAQASRLAAEKASGILAGLGWQKQDIDAAAHAITTHSFSANIEPQTLEAKILQDADRLDAIGMVGAARCFYIAGRMGSALYDPADPLAKERPLDDRAFAIDHFETKLFKLADGFRTETGRQMAKARHERLKQVLDLFLDEILEHHHHHH | soluble
MIEQFNFDIRLIFAILNGKVSAAINRKLYRNFRQNGLEISPEQWTVLIFLWEKDGVTQQELCNATFKDKPSMTRLIDNMERQHLVVRISDKKDRRTNLIHLTKDGKELEEKARIIAGQTLKEALHGITLEELSIGQEVLKKVFYNTKD | not soluble
MTVDSSMSSGYCSLDEELEDCFFTAKTTFFRNAQSKHLSKNVCKPVEETQRPPTLQEIKQKIDSYNTREKNCLGMKLSEDGTYTGFIKVHLKLRRPVTVPAGIRPQSIYDAIKEVNLAATTDKRTSFYLPLDAIKQLHISSTTTVSEVIQGLLKKFMVVDNPQKFALFKRIHKDGQVLFQKLSIADRPLYLRLLAGPDTEVLSFVLKENETGEVEWDAFSIPELQNFLTILEKEEQDKIQQVQKKYDKFRQKLEEALRESQGKPG | not soluble
MARKIRKLRKAEVNYITIKATLEAEKKEDYLKLALLTEKFKRAVELSIRLQLKGVKKSEGVKEVSRLILNNWWYSDSAWDYAKMLRKGAERS | not soluble
MPNDVDNTKITLSLGKCGYLPQDVRTMTKFDKNTKQIRTFAFVEFSNRETAEQWMTDYEGWLTLDDGRTLAVEYAKGDPAAGSGNKGDDWICAHCSMNNFVKRQTCFKCEISKDQSMELEKLGAHMVGMTPCDTLLIRGLPDGINNSLIFDSLGALVCLSSISMIKLSESKRFAYLQMKSADEAKMLLNLTYKSPIRIKDKDVQVSWCRDSMSKLIQQQMTMLTAGPGKNSVATGSLAQGNMTGAEIAAAALSKANAVRQASQQVGQIMTGLPAPAANMIPPNFSVPPPNLSVPPPMQATQPEHQNGVIGMTQTPKGLLPRYLPPNPLTFAHDPNLGYYVDPITKFCYDSATGYYFNNATSQWCNWDLTHHTYFPVETPAVINSADPEEEKMKKNEEGPKTAQDLVKDMAKWAKRQEKDKKKVQISIKGKETKGIELKNVFSNEKQKRIAQTAALFDDDEEEDQEEEVRGRRSEEPSTSSSFSSVPLAPRKSTLQDVRDAMERALYDETKKTCMLCKRAFSDVEVLRKHVEKSDLHRNNLEAKRAEWGRETAAKLQEEEEDASAPDLPKIVYRDRAKERRRQFGIDSTGYAFDVMGGPPGPTSVRHEETIRKVSEEASKRPLDESNIGNRLLKSMGWKEGQGVGKHAQGIVNPIEAERFVQGAGLGAAGSKMRHGAEASHKEKTRQALYSRYHDA | not soluble
MSLTTVMSGVTTLMRAPIGSIRESEGGRDFIRNVFEESVQIMRVLGAPVKENITEEHMKTMDKISYNMKSSMQRDMEKGSSVEGTHLQGYLLDVAKQFSIEAPLLGAVYQNLKVYEEMTLNRSAIELDEGHHHHHH | soluble
MFTDSTAKTVAPYTWKTDAGARATSTSDCIVLVLNGNNPIVADVQSCNADTTLPALGVMCGKRAWVY | soluble
MSLNLPSFTLDIKLAGDGPAGVEKQIQQMQAMVDDRVDLIIVQPTDNAALSSPLQAANQAGIPVVAYDQYISGGHLSAFVTSNNYQAGFLDGEYMAHHFADDHTIQIILVEYPYVSSTIDRVDGFFDALNQYKQPYRILRSYQAVEPVQGRAVGQQILQDFPQPGSVDALFTINDGGGLAIVDELEKAGRHELFVATIDGDPNSVARIRKGSIIKIDSAQFCGPIGAEAMRAAYAILTAGKVHEHWLVPVFPITRQSVAHYPGWSGPIPEHYSNPCLTFLCREGHHHHHH | not soluble
MGSDKIHHHHHHMTNVIIEKISAKEVFKGAKIKVMITTMTNISIGYDIIEVNNPEEAIADVENVIAPELIGYPATDIDFIDSLICETSVNNPTVAMGISISVARAASNSLDIPLFKFLGGALTTELPIVASGILVDKDKNELIPIVMADSIEDIVNLYLKLTDVLSHDYSIVNIDGAYTCKDIFNEIPKIRNLIDEIKEDEDLDILLGLSSKKETVKDKDLSQIDYLEVEEPVEFDGFLCTDSIYEESDFVKVFPYEMGTITEMYYYINYIMDKGLYPVIFGNNSSFAHIAVSFKVPFLRPKLSSNVLNEVWNIERTIMNPNIRRF | not soluble
MGSDKIHHHHHHMVKGLDMIFYLHGFDATSPGNHEKMRQLQFIDPDVRLLSYSTLHPKHDMQHLLKEVAKQMQHTDDPEPLMVGVGLGAYWAERIGFLNGLKSVLINPNLHPENNMQGKIDRPEEYADIASKCVSEFRLKNTHRAMCIFSVNDDVLDCKANAQELSEYYAIEWDDVQPHKFPQLAAHLPKIKAFKLA | not soluble
MGSDKIHHHHHHMSYSDVIAIAGGWEGYRVAGARTIVTSDAKRIEVELIALSQDEMVCGSCGGRCTSVHETTKRVIRDLPILDAQTYLIVHRRRLLCPQCGPTLERLSWLAKYARVTRRLAESVARLCGVVSVKHVAQYLGLSWDQVKEIDKRSLTERVGTVDLSNIEVLGMDEFALHKGHRYATVIIEPYRKEVLWIGKGRSRESIRPFFTQLGPHGCKRLKAVVMDMNASYEEEIKQHSPQADIVYDLFHVVAKYGREVIDRVRVDEANRLKEDKKARKVVKTSRWLLLRNSENVKGDDMLRLQELLEANRSLLTVYLLKDDLKQLWKFTCIEEAGLFWEQWHQRAMESGIPPLILFARRLKGYLQGILNHCLWPLHTGILEGINNKIKVIKRMAYGFRDHEYFFLKIRAAFPGIPG | not soluble
MKTRVVLILALSVCIEAASEVIRARAYIFKAEAGKIPTELIGTIDFDQSGSFLKLNGSVSGLAAGKHGFHIHEKGDTGNGCLSAGGHYNPHKLSHGAPDDSNRHIGDLGNIESPASGDTLISVSDSLASLSGQYSIIGRSVVIHEKTDDLGRGTSDQSKTTGNAGSRLACGTIGTV | not soluble
AIAPDESAQVRFLIVGRTGWIANMVAELLEQRGERYAFASFRLEQREACELELDALRPQRVLNCAGVTGRPNVDWCEDHRRETVRSNVLGVLNLADCCASRGIHLTNFATGCLYHYDDGEHRPTAEGGRPFTEDDPPNFFGSYYSRTKAMVEELLRSAFDNVLILRLRMPVSDDLSPRSFVAKIARYEKVVNIPNSMTVLTELLPVALDMSERGLTGVYNFTNPGSISHNEVLELYRKYIDPKFQWKNFTLEEQAKILKAGRSNCELDVRKLLRDNPGAQIREVHAAMEEVFRRMQAKGVKPLAAP | soluble
MAAASFAPFQDLANLLIPYTHAEKIDGSHDVSHLLRVWKNVCAIRDREGGDARVLMAATLLHDCVSVEKDSPFRAGASRLAAARARELLGDMGWDEESIASVAHAVEAHSFSAAITPVSLEAKILQDADRLDSLGMIGVARTFYVSGRMGKYLYEPNDPHASQRPYDDKRFAVDHFHTKLLHLADGFQTRTGTQMAKVRHDRLKRFLDELMEEIDASRPLEHHHHHH | not soluble
MYEKTKWKIQKMMKKGVFSGASFCFIEGEKEESNCWGLAQVKPTKEQLTSAMLFDVASLTKVVGTTTVILQLVEEGKIILDQSLQTYYPSFQDSNITIRHLLTHTADLQGYIPNRDQLNAQELKDAYNHSFHAGKAIGKKVVYTDAGTILLGFMLEEMFQQSMIEILSERVLLPLGMNESTFLPKNPLNCVPTELHEQRGLIRGATHDPKAFVLREHAGNAGLFSNVYDLTKFVRMYLNRGSYHNHQFLKKETIDLLLVNQVPAADKPRSLGWDFKYDVATQRPLLFHTGYTGTFLLIDVQQQSALIFLSNRVHPEDHRNTYIEERDQLLATYLKEKSSVSDEMTSF | not soluble
MGSDKIHHHHHHMYMEKRQFIKDIAVNGDVNGLFLIASANQMQAKNGPFWRLEICDASGTLNAKIWSPLSASFETLTPGDVVHLEGRAGLFRDRIDISVDRMRVLAPYELEALDMGQFLVSSERDPAEMLTELLELCREVFTHRPWRKFVTGVLRNEELAEALKAAPAAKSVHHAYRGGLLEHILSVSGLCMRIADHYPEIDRQVLLAGAIFHDIGKAWELSGGLVNDYTDEGRLLGHIHIGLEQLEPFLRRSGLEHELAVHFKHLILSHHGEYEFGSPRRPKTREAMVLHYADNLDAKMAQLNSLFKGFEDGETGWTPFQPTLQRFLYNPVRTPETETVRRKRPETPREEQCSLLSKG | not soluble
RKGHFSRCPKQYKHYCIKGRCRFVVAEQTPSCVCDEGYIGARCERVDLFY | soluble
AGHILLLEEEDEAATVVCEMLTAAGFKVIWLVDGSTALDQLDLLQPIVILMAWPPPDQSCLLLLQHLREHQADPHPPLVLFLGEPPVDPLLTAQASAILSKPLDPQLLLTTLQGLCPPN | soluble
SNAMLDITTITRQNVTSVVGYYSDAKDDYYSKDSSFTSWQGTGAEALGLSGDVESARFKELLVGEIDTFTHMQRHVGDAKKERLGYDLTFSAPKGVSMQALIHGDKTIIEAHEKAVAAAVREAEKLAQARTTRQGKSVTQNTNNLVVATFRHETSRALDPDLHTHAFVMNMTQREDGQWRALKNDELMRNKMHLGDVYKQELALELTKAGYELRYNSKNNTFDMAHFSDEQIRAFSRRSEQIEKGLAAMGLTRETADAQTKSRVSMATREKKTEHSREEIHQEWASRAKTLGIDFDNREWQG | soluble
MGSDKIHHHHHHMSRAIPAMPLAPASAALDLSKVKTLVCEPSLPIRQGIRLALNNVGIRDITEATTFLAAHQACKEGDHDFLLLNQEIETNDTAFMVRELRSGALGRDPFILTVMLLSSREEPKVRSAIDCGPDDLLLIPFAPDQLMNRLKAQIERRKPFVVTHDYIGPDRRAAPRPGATSATQFQVPNPVRARGTNVPRDRYDRMKQESIVTISVERIKRLAATMDWECNALTVSAREGRMTPESTYRSLLKLEQVTAELSLRVTKQLGHSTETIDSLTQYLPPVEDGSEQCKLFRC | not soluble
